Results as given in IntAct's records for PubMed 15078334.

B1: Guanine nucleotide-binding protein alpha-1 subunit (Oryza sativa subsp. japonica (Rice)), Q0DJ33 (parent)
chain: MGSSCSRSHSLSEAETTKNAKSADIDRRILQETKAEQHIHKLLLLGAGESGKSTIFKQIKLLFQTGFDEAELRSYTSVIHANVYQTIKILYEGAKELSQVESDSSKYVISPDNQEIGEKLSDIDGRLDYPLLNKELVLDVKRLWQDPAIQETYLRGSILQLPDCAQYFMENLDRLAEAGYVPTKEDVLYARVRTNGVVQIQFSPVGENKRGGEVYRLYDVGGQRNERRKWIHLFEGVNAVIFCAAISEYDQMLFEDETKNRMMETKELFDWVLKQRCFEKTSFILFLNKFDIFEKKIQKVPLSVCEWFKDYQPIAPGKQEVEHAYEFVKKKFEELYFQSSKPDRVDRVFKIYRTTALDQKLVKKTFKLIDESMRRSREGT
partner: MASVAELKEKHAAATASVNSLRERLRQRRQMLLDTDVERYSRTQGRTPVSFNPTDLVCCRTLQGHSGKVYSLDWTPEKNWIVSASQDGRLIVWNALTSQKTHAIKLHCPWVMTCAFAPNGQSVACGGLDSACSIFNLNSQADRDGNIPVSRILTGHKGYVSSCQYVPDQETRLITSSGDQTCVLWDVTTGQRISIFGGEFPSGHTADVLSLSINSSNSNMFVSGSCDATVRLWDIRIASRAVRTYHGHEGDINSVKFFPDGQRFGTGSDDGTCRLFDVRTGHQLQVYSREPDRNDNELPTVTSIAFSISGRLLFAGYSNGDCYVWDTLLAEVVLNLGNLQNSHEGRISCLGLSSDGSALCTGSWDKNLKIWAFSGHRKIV

Variants of: B1
Conditions: with gbb_orysj RGB1, Q40687

effect of a mutation on the interaction	Variant
disrupting interaction	Q223L
